± gives the uncertainty stated by the source.
Assay: self-splicing fitness, log relative to wild type (ln ratio); higher = more splicing; Tetrahymena group I intron in knt gene, E. coli kanamycin selection, DiMSum; sequences stand for … in CUCUCU…GGAGGGAAAAGUUAUCAGGCAUGCACCUGGUAGCUAGUCUUUAAACCAAUAGAUUGCAUCGGUUUAAAAGGCAAGACCGUCAAAUUGCGGGAAAGGGGUCAACAGCCGUUCAGUACCAAGUCUCAGGGGAAACUUUGAGAUGGCCUUGCAAAGGGUAUGGUAAUAAGCUGACGGACAUGGUCCUAACCACGCAGCCAAGUCCUAAGUCAACAGAUCUUCUGUUGAUAUGGAUGCAGUUCACAGACUAAAUGUCGGUCGGGGAAGAUGUAUUCUUCUCAUAAGAUAUAGUCGGACCUCUCCUUAAUGGGAGCUAGCGGAUGAAGUGAUGCAACACUGGAGCCGCUGGGAACUAAUUUGUAUGCGAAAGUAUAUUGAUUAGUUUUGGAGUACUCGUGGUCG
In short: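 A randomised library covering all eight P1ex-region intron nucleotides was built with the intron in the knt kanamycin-resistance gene on pET-22b(+) and held in E. coli BL21(DE3). Cells were grown overnight at 37°C or 30°C on LB agar, with or without 25 μg/mL kanamycin, plus 100 μg/mL carbenicillin, 50 μM IPTG and 0.2% rhamnose, and pooled colonies were amplicon-sequenced on an Illumina HiSeq 2500. DiMSum fitness is the error-weighted combination of wild-type-normalised replicate fold changes, kanamycin versus none.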

## UGUAAGCAAUAUUACGAGAG
30 °C
  self-splicing fitness (ln): -3.81 ± 0.23
37 °C
  self-splicing fitness (ln): -1.87 ± 0.25

## GAUUAGCAAUAUUACGUCAA
30 °C
  self-splicing fitness (ln): -2.6 ± 0.41
37 °C
  self-splicing fitness (ln): -0.886 ± 0.22

## GGCCAGCAAUAUUACGGUUU
30 °C
  self-splicing fitness (ln): -0.995 ± 0.067
37 °C
  self-splicing fitness (ln): -0.401 ± 0.074

## GAUUAGCAAUAUUACGGAUC
30 °C
  self-splicing fitness (ln): -2.71 ± 0.4
37 °C
  self-splicing fitness (ln): -2.18 ± 0.32

## ACGGAGCAAUAUUACGGUUU
30 °C
  self-splicing fitness (ln): -3.1 ± 0.15
37 °C
  self-splicing fitness (ln): -3.31 ± 0.28

## AGGUAGCAAUAUUACGAACC
30 °C
  self-splicing fitness (ln): -0.58 ± 0.025
37 °C
  self-splicing fitness (ln): -0.294 ± 0.041

## GAAAAGCAAUAUUACGCGAA
30 °C
  self-splicing fitness (ln): -2.75 ± 0.2
37 °C
  self-splicing fitness (ln): -1.13 ± 0.18

## CUUUAGCAAUAUUACGAAAG
30 °C
  self-splicing fitness (ln): -3.18 ± 0.23
37 °C
  self-splicing fitness (ln): -1.7 ± 0.28

## GCAGAGCAAUAUUACGUCAA
30 °C
  self-splicing fitness (ln): -2.73 ± 0.45

## AAAUAGCAAUAUUACGAUUG
30 °C
  self-splicing fitness (ln): -2.16 ± 0.15
37 °C
  self-splicing fitness (ln): -1.31 ± 0.18

## GCGAAGCAAUAUUACGGGUA
30 °C
  self-splicing fitness (ln): -3.04 ± 0.23
37 °C
  self-splicing fitness (ln): -0.904 ± 0.17

## ACGCAGCAAUAUUACGGCAC
30 °C
  self-splicing fitness (ln): -0.763 ± 0.077
37 °C
  self-splicing fitness (ln): -0.602 ± 0.11

## GUACAGCAAUAUUACGUUGC
30 °C
  self-splicing fitness (ln): -3.96 ± 0.13
37 °C
  self-splicing fitness (ln): -3.05 ± 0.14

## GGUCAGCAAUAUUACGAAAU
30 °C
  self-splicing fitness (ln): -1.15 ± 0.097
37 °C
  self-splicing fitness (ln): 0.351 ± 0.12

## CUUAAGCAAUAUUACGGACC
37 °C
  self-splicing fitness (ln): -0.536 ± 0.36

## GCUAAGCAAUAUUACGAGAU
30 °C
  self-splicing fitness (ln): -2.3 ± 0.12
37 °C
  self-splicing fitness (ln): -1.51 ± 0.14

## AGAUAGCAAUAUUACGACCA
30 °C
  self-splicing fitness (ln): -0.39 ± 0.16
37 °C
  self-splicing fitness (ln): 1.11 ± 0.2

## UCUGAGCAAUAUUACGAGGG
30 °C
  self-splicing fitness (ln): -4.14 ± 0.27
37 °C
  self-splicing fitness (ln): -2.5 ± 0.3

## GGUGAGCAAUAUUACGCCAG
30 °C
  self-splicing fitness (ln): -2.86 ± 0.47

## GCCCAGCAAUAUUACGCAAG
30 °C
  self-splicing fitness (ln): -2.79 ± 0.093
37 °C
  self-splicing fitness (ln): -2.46 ± 0.14

## UAACAGCAAUAUUACGGACG
30 °C
  self-splicing fitness (ln): -0.143 ± 0.055
37 °C
  self-splicing fitness (ln): 0.21 ± 0.079

## AUACAGCAAUAUUACGAAUU
30 °C
  self-splicing fitness (ln): -2.71 ± 0.15
37 °C
  self-splicing fitness (ln): -1.16 ± 0.14

## UCGCAGCAAUAUUACGCGGC
37 °C
  self-splicing fitness (ln): -1.94 ± 0.26

## GCUGAGCAAUAUUACGCUGC
30 °C
  self-splicing fitness (ln): -2.56 ± 0.32
37 °C
  self-splicing fitness (ln): -1.92 ± 0.3

## AGUAAGCAAUAUUACGUCAC
30 °C
  self-splicing fitness (ln): -3.26 ± 0.19
37 °C
  self-splicing fitness (ln): -2.11 ± 0.17

## GACGAGCAAUAUUACGAAAA
37 °C
  self-splicing fitness (ln): -3.07 ± 0.37

## GGCCAGCAAUAUUACGUCCU
30 °C
  self-splicing fitness (ln): -1.47 ± 0.21
37 °C
  self-splicing fitness (ln): -0.4 ± 0.17

## GGUCAGCAAUAUUACGAACU
30 °C
  self-splicing fitness (ln): -0.446 ± 0.25
37 °C
  self-splicing fitness (ln): -1.74 ± 0.21

## UGUGAGCAAUAUUACGGGGC
30 °C
  self-splicing fitness (ln): -3.14 ± 0.39
37 °C
  self-splicing fitness (ln): -2.25 ± 0.33

## CGACAGCAAUAUUACGGAGG
30 °C
  self-splicing fitness (ln): -1.91 ± 0.086
37 °C
  self-splicing fitness (ln): -1.21 ± 0.12

## CGUCAGCAAUAUUACGACGC
37 °C
  self-splicing fitness (ln): -3.2 ± 0.32

## AAUUAGCAAUAUUACGCUUG
30 °C
  self-splicing fitness (ln): -0.701 ± 0.07
37 °C
  self-splicing fitness (ln): 0.227 ± 0.095

## GCUUAGCAAUAUUACGCGAA
30 °C
  self-splicing fitness (ln): -2.55 ± 0.11
37 °C
  self-splicing fitness (ln): -1.98 ± 0.11

## CCAGAGCAAUAUUACGCAGU
30 °C
  self-splicing fitness (ln): -3.22 ± 0.13
37 °C
  self-splicing fitness (ln): -3.42 ± 0.21

## CGACAGCAAUAUUACGAGCA
30 °C
  self-splicing fitness (ln): -2.11 ± 0.18
37 °C
  self-splicing fitness (ln): -1.26 ± 0.16
